The numbers were not newly measured in paper PMC10035860, which cites them from elsewhere.

In general, Kd refers to the constant that tells how readily two partners part at equilibrium.

This data set addresses growth hormone receptor (Homo sapiens) (UniProt P10912).
Chain of UniProt P10912 (P10912 19-638): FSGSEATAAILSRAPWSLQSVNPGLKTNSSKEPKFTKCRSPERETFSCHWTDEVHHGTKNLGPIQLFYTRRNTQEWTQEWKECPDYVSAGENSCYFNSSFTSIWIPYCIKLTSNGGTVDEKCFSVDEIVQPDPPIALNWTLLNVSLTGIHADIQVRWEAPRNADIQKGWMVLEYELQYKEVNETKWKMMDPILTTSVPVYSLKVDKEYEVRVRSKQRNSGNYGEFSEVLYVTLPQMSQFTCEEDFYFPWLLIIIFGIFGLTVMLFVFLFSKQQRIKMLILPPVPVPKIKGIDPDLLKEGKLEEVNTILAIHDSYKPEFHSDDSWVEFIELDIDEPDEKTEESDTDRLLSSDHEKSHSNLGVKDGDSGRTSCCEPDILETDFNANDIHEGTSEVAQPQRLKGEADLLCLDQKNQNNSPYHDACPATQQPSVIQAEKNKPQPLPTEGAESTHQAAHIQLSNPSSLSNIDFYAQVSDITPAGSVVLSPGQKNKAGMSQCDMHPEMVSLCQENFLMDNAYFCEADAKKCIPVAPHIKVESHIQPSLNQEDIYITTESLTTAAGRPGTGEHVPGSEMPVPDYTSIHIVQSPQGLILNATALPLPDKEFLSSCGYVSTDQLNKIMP

Chain of growth hormone (P01241 27-217): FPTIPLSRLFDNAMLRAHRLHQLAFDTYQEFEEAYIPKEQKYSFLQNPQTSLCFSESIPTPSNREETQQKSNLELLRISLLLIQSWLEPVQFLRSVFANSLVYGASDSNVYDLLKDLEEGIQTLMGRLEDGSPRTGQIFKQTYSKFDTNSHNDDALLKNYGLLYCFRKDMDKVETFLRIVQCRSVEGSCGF

Turning to growth hormone (from UniProt P01241), the Kd is 0.3 nM.
